Source: PMC9352680, “A comprehensive thermodynamic model for RNA binding by the Saccharomyces cerevisiae Pumilio protein PUF4”
Numbering of substitutions follows the chain as printed. Names and notes keep the numbering of the source.

T1: PUF4 RNA-binding domain (Saccharomyces cerevisiae, UniProt P25339 537-888)
T1 sequence: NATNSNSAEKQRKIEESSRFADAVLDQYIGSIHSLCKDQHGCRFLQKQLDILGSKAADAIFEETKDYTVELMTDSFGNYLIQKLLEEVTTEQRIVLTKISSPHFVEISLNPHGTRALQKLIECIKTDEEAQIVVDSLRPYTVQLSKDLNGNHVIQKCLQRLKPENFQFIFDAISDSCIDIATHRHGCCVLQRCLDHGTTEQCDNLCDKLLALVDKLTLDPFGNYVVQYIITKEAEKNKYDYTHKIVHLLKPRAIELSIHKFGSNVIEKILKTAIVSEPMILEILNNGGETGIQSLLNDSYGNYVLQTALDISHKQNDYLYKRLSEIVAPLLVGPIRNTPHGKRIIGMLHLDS

B1: Ic_S4_P5E.1_K5.1_C5.1_H5.1_A5.1_F5.1_[T8C]_[T9C]_[A10T]_T5.1 (ssRNA)
RNA: UUUGACAACUGAUCGUUCUUUCUUGUAUUACCUUUCUUUCUCGAUCAGUUGUCUUU
B2: Ic_S4_P5E.1_K5.1_C5.1_H5.1_A5.1_[T5C]_[T6A]_F5.1_[T8A]_[T9C]_[A10T]_T5.1 (ssRNA)
RNA: B1 RNA with U28C, U29A, C31A
B3: Ic_S4_P5E.1_K5.1_C5.1_H5.1_A5.1_[T6C]_[A7T]_F5.1_[T8C]_[A10G]_T5.1 (ssRNA)
RNA: B1 RNA with U29C, A30U, C32U, U33G
B4: Ic_S4_P5E.1_K5.1_C5.1_H5.1_A5.1_[T6G]_[A7T]_F5.1_[T8C]_[T9C]_[A10C]_T5.1 (ssRNA)
RNA: B1 RNA with U29G, A30U, U33C
B5: Ic_S4_P5E.1_K5.1_C5.1_H5.1_A5.1_[T5C]_[T6A]_[A7C]_F5.1_[T8A]_[A10G]_T5.1 (ssRNA)
RNA: B1 RNA with U28C, U29A, A30C, C31A, C32U, U33G
B6: Ic_S4_P5E.1_K5.1_C5.1_H5.1_A5.1_[T6C]_[A7T]_F5.1_[T8A]_T5.1 (ssRNA)
RNA: B1 RNA with U29C, A30U, C31A, C32U, U33A
B7: Ic_S4_P5E.1_K5.1_C5.1_H5.1_A5.1_[T6G]_[A7T]_F5.1_[T8G]_[T9C]_[A10C]_T5.1 (ssRNA)
RNA: B1 RNA with U29G, A30U, C31G, U33C
B8: Ic_S4_P5E.1_K5.1_C5.1_H5.1_A5.1_[T5A]_[A7T]_F5.1_[T9G]_[A10C]_T5.1 (ssRNA)
RNA: B1 RNA with U28A, A30U, C31U, C32G, U33C
B9: Ic_S4_P5E.1_K5.1_C5.1_H5.1_A5.1_[T5A]_[T6A]_[A7T]_F5.1_[T8C]_[T9A]_[A10G]_T5.1 (ssRNA)
RNA: B1 RNA with U28A, U29A, A30U, C32A, U33G
B10: Ic_S4_P5E.1_K5.1_C5.1_H5.1_A5.1_[T5A]_[A7C]_F5.1_[T8A]_[T9G]_[A10C]_T5.1 (ssRNA)
RNA: B1 RNA with U28A, A30C, C31A, C32G, U33C
B11: Ic_S4_P5E.1_K5.1_C5.1_H5.1_A5.1_[T5G]_[T6C]_F5.1_[T9A]_[A10C]_T5.1 (ssRNA)
RNA: B1 RNA with U28G, U29C, C31U, C32A, U33C
B12: Ic_S4_P5E.1_K5.1_C5.1_H5.1_A5.1_[T5A]_F5.1_[T8C]_[T9C]_[A10T]_T5.1 (ssRNA)
RNA: B1 RNA with U28A
B13: Ic_S4_P5E.1_K5.1_C5.1_H5.1_A5.1_[T5A]_[A7T]_F5.1_[T8C]_[T9C]_[A10T]_T5.1 (ssRNA)
RNA: B1 RNA with U28A, A30U
B14: Ic_S4_P5E.1_K5.1_C5.1_H5.1_A5.1_[T6C]_F5.1_[T9G]_[A10C]_T5.1 (ssRNA)
RNA: B1 RNA with U29C, C31U, C32G, U33C
B15: Ic_S4_P5E.1_K5.1_C5.1_H5.1_A5.1_[T5A]_[T6A]_[A7C]_F5.1_[T8C]_[T9G]_[A10C]_T5.1 (ssRNA)
RNA: B1 RNA with U28A, U29A, A30C, C32G, U33C
B16: Ic_S4_P5E.1_K5.1_C5.1_H5.1_A5.1_[T5A]_F5.1_[T8A]_[T9C]_[A10T]_T5.1 (ssRNA)
RNA: B1 RNA with U28A, C31A
B17: Ic_S4_P5E.1_K5.1_C5.1_H5.1_A5.1_[T5C]_[T6G]_[A7C]_F5.1_[T8A]_[T9G]_[A10C]_T5.1 (ssRNA)
RNA: B1 RNA with U28C, U29G, A30C, C31A, C32G, U33C
B18: Ic_S4_P5E.1_K5.1_C5.1_H5.1_A5.1_[T5C]_[T6A]_F5.1_[T9C]_[A10T]_T5.1 (ssRNA)
RNA: B1 RNA with U28C, U29A, C31U
B19: Ic_S4_P5E.1_K5.1_C5.1_H5.1_A5.1_[T6A]_[A7C]_F5.1_[T8C]_[T9C]_[A10G]_T5.1 (ssRNA)
RNA: B1 RNA with U29A, A30C, U33G
B20: Ic_S4_P5E.1_K5.1_C5.1_H5.1_A5.1_[T6C]_[A7G]_F5.1_[T8A]_[A10C]_T5.1 (ssRNA)
RNA: B1 RNA with U29C, A30G, C31A, C32U, U33C
B21: Ic_S4_P5E.1_K5.1_C5.1_H5.1_A5.1_[T5C]_[T6A]_[A7T]_F5.1_[T8C]_[T9C]_T5.1 (ssRNA)
RNA: B1 RNA with U28C, U29A, A30U, U33A
B22: Ic_S4_P5E.1_K5.1_C5.1_H5.1_A5.1_[T6C]_[A7G]_F5.1_[T8C]_[T9C]_T5.1 (ssRNA)
RNA: B1 RNA with U29C, A30G, U33A
B23: Ic_S4_P5E.1_K5.1_C5.1_H5.1_A5.1_[T5C]_[A7T]_F5.1_[T8A]_[T9C]_[A10G]_T5.1 (ssRNA)
RNA: B1 RNA with U28C, A30U, C31A, U33G
B24: Ic_S4_P5E.1_K5.1_C5.1_H5.1_A5.1_[T6A]_[A7T]_F5.1_[T9C]_[A10C]_T5.1 (ssRNA)
RNA: B1 RNA with U29A, A30U, C31U, U33C
B25: Ic_S4_P5E.1_K5.1_C5.1_H5.1_A5.1_[A7C]_F5.1_[T8G]_[A10T]_T5.1 (ssRNA)
RNA: B1 RNA with A30C, C31G, C32U
B26: Ic_S4_P5E.1_K5.1_C5.1_H5.1_A5.1_[T5G]_[T6C]_[A7G]_F5.1_[T9A]_T5.1 (ssRNA)
RNA: B1 RNA with U28G, U29C, A30G, C31U, C32A, U33A

Biological target: T1, PUF4 RNA-binding domain
Assay: Mg; RNA-MaP; 20 mM Na-HEPES pH 7.4, 30 mM KOAc, 0.75 mM MgCl2, 0.1% Tween-20, 5% glycerol, 0.1 mg/mL BSA, 2 mM DTT; 25 C; 0.0125-409.6 nM protein
Settings: tags: N-His6-TEV cleaved; C-SNAP kept, Cy3B-labelled; label: tethered on chip by stalled RNA polymerase

Row | Binder | Kd [nM]
1 | B1 | 160
2 | B2 | 80.6
3 | B3 | 19.1
4 | UCUCUUUGUAUGUUUUCUCUU (ssRNA) [Ic_S1_P4E.1_K4.1_C4.1_H4.1_A4.1_[A6G]_F4.1_[A9T]_T4.1] | 40
5 | B4 | 66.1
6 | B5 | 130
7 | B6 | 3.97
8 | B7 | 67.2
9 | B8 | 46.7
10 | B9 | 180
11 | B10 | 1930
12 | B11 | 6.93
13 | B12 | 379
14 | B13 | 179
15 | UCUCUUUGUAUCUUUUCUCUU (ssRNA) [Ib_S1_P4E.1_K4.1_C4.1_H4.1_A4.1_[A6C]_F4.1_[A9T]_T4.1] | 20.9
16 | B14 | 14.6
17 | B15 | 703
18 | B16 | 561
19 | B17 | 882
20 | B18 | 19.7
21 | B19 | 117
22 | B20 | 1840
23 | B21 | 20.4
24 | B22 | 850
25 | B23 | 561
26 | UCUCUUUGUAUUUUUUCUCUU (ssRNA) [Ib_S1_P4E.1_K4.1_C4.1_H4.1_A4.1_[A6T]_F4.1_[A9T]_T4.1] | 20.9
27 | B24 | 3.74
28 | B25 | 59.5
29 | B26 | 25.3
